US11291722B2, “Vaccine composition comprising cyclic peptides, antibodies to the cyclic peptides or an anticancer composition comprising the same” (Industry Academic Cooperation Foundation, Hallym University, priority 2016, dated 2022)
One block for each molecule: values may come before it.

Legend:
[1] = biological target: T1, TM4SF5 (Homo sapiens, UniProt O14894); conditions: in vitro and in vivo; cited from earlier work
T1 sequence (O14894 1-197): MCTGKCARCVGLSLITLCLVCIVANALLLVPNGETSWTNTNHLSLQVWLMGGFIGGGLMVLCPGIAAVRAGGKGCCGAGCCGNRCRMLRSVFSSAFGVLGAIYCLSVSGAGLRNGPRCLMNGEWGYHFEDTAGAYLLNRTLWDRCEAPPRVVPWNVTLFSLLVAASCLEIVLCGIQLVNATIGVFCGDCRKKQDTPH

[2] = biological target: T2, hTM4SF5EC2-C cyclic peptide (Homo sapiens, UniProt O14894, G133C/V156C); test: ELISA binding of monoclonal antibody to cyclic peptide
T2 construct: purchased Peptron, Co., Ltd; host or cells: chemical synthesis
T2 sequence (O14894 131-157 G133C/V156C): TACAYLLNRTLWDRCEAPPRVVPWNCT
Procedure: Mice were sacrificed before and 10 days after each administration to obtain serum. To determine the total IgG titer and amount, a 96-well immunoplate (Nalgen Nunc International) was coated with 5 μg/ml hTM4SF5EC2-C cyclic peptide and blocked with 0.05% PBST containing 1% BSA for two hours. After removal of blocking solution, 100 μl of the culture supernatant was added and incubated for 2 hours at room temperature, then washed with PBST and incubated for 2 hours with the detection antibody such as horseradish peroxidase (HRP)-bound an anti-IgG antibody. Colorimetric assays were developed with TMB substrate solutions and absorbance was measured at 450 nm using a Spectra Max 250 microplate reader.

[3] = biological target: T3, hTM4SF5EC2-C cyclic peptide (Homo sapiens, UniProt O14894, G133C); test: SPR (surface plasmon resonance) analysis; format: binding; conditions: 25° C.
T3 construct: purchased Peptron, Co., Ltd; host or cells: chemical synthesis
T3 sequence (O14894 with tags, fused parts or gaps G133C): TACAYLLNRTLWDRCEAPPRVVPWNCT
Procedure: FIG. 6 represents purification and characterization of mouse anti-TM4SF5 monoclonal antibodies recognizing TM4SF5 cyclic peptides. (A) Hydrops abdominis was producted from BALB/c mice by injecting i.p. into the abdominal cavity with hybridoma clone (2A10 clone) derived from FIG. 5. Anti-TM4SF5 monoclonal antibody was purified using protein-A agarose column chromatography and the purified antibody was identified by SDS-PAGE and Coomassie blue staining. (B) The isotype was determined by obtaining titration curves using purified monoclonal antibodies. (C) A binding affinity of monoclonal antibody for cyclic peptide hTM4SF5EC2-C was determined by using ELISA. (D) A binding affinity of monoclonal antibody for cyclic peptide […] was determined by using Reichert Analytical Instruments SPR 7500DC (Reichert). […] (E) HEK 293F-EV (empty vector) and proteins from HEK 293F-TM4SF5 cells were separated by SDS-PAGE and analyzed by Western Blot using anti-TM4SF5 monoclonal antibody (mEC2-C), anti-Myc antibody or anti-β-actin antibody. HEK 293F-EV and proteins of HEK 293F-TM4SF5 cell were immunoprecipitated with mEC2-C and analyzed by Western blot using anti-Myc antibody. […]
The affinities of anti-hTM4SF5 monoclonal antibody (mEC2-C) and humanized anti-TM4SF5 antibody (hEC2-C-2) binding to hTM4SF5EC2-C cyclic peptide were measured at 25° C. using the Reichert SPR system. […]

[4] = biological target: T4, Myc-tagged recombinant TM4SF5 protein (Homo sapiens, UniProt O14894); test: Western blot and immunoprecipitation on TM4SF5-overexpressing HEK 293F cells; format: binding; conditions: HEK 293F cells overexpressing TM4SF5 vs HEK 293F control
T4 construct: expressed in transfected cells
T4 sequence (O14894 1-197): T1 sequence (O14894 1-197)
Procedure: Human TM4SF5 cDNA was amplified by RT-PCR from Huh-7 mRNA using the following primer set: hTM4SF5 5′ primer, 5′-[…]-3′ (SEQ ID NO: 24), hTM4SF5 3′ primer, 5′-[…]-3′ (SEQ ID NO: 25). The cDNA fragment was cloned into the expression vector pcDNA-3.1/Myc-His(−)B (Invitrogen). HEK 293F cells (1×10^6 cells/ml) were transfected with 2.5 μg/ml hTM4SF5/pcDNA and 7.5 μg/ml polyethylenimine (PEI, Polysciences) for the production of stable cell lines expressing hTM4SF5, and the transfected cells were collected using 500 μg/ml G418 (Calbiochem) for 14 days. Expression of Myc-tagged hTM4SF5 was confirmed by Western blot analysis using anti-Myc-tag antibodies.
In order to analyze the specificity of anti-TM4SF5 monoclonal antibody and humanized anti-TM4SF5 antibody, TM4SF5-overexpressed cell lysates were separated on SDS-PAGE, and Western blot and immunoprecipitation assays were performed as described on Kwon S, Kim D, Rhee J W, Park J A, Kim D W, Kim D S, Lee Y, Kwon H J. BMC Biol. 2010; 8:23. In order to identify the expression of E-cadherin and β-catenin in humanized anti-TM4SF5 antibody-treated cells, cell lysates were analyzed with SDS-PAGE and Western blotting method as descried in Kwon S, Choi K C, Kim Y E, Ha Y W, Kim D, Park B K, Wu G, Kim D S, Lee Y, Kwon H J. Cancer Res. 2014; 74(14):3844-3856.

[5] = system: HT-29 cells; format: in vivo, BALB/cAnNCri-nu/nu mice; conditions: 25 mg/kg tail vein twice a week; compared to PBS control
Procedure: Mouse tumor models were established by implanting HT-29 cells into BALB/cAnNCri-nu/nu mice. PBS or anti-TM4SF5 monoclonal antibody was injected into the mice when the tumor size reaches 5 mm in diameter and the tumor growth was monitored for 31 days (n=6 each). (A) Experimental schedule. (B) Macroscopic appearance of colon cancer tissue. (C) Tumor volume (width^2×length/2). (D) Tumor weight. (E) Weight.
Twelve BALB/cAnNCri-nu/nu mice were subcutaneously injected with 5×10^6 HT-29 cells containing 50% matrigel (BD biosciences) on the dorsal right flank. When the tumor diameter reached 5 mm, the mice were randomly sorted into two treatment groups (6 mice/each group) of PBS and anti-TM4SF5 monoclonal antibody (mEC2-C). Antibodies (25 mg/kg) were injected into the tail vein twice a week. During 30 days after injecting the cancer cell, the tumor diameter was measured per 3 or 4 day-interval, and the tumor volume was calculated according to an equation Width^2×length/2. When the tumor size is reached ±600 mm^3, BACB/cAnNCri-NCri-nu/nu mice were sacrificed, and the tumor weight was measured.

Molecule: Cc1ccc(S(=O)(=O)Nc2ccc(C(=O)/C=C/c3ccc(O)cc3)cc2)cc1 [TSAHC, 4′-(p-toluenesulfonyl-amido)-4-hydroxychalcone]
- HCC growth and metastasis [1]: inhibited HCC growth and metastasis in vitro and in vivo

- binding to cyclic peptide hTM4SF5EC2-C by ELISA [2]: specific binding
- off rate (kd) [3]: 10^−5 /sec
B1: mEC2-C: mouse IgG3 anti-TM4SF5 monoclonal antibody from hybridoma clone 2A10, recognizing hTM4SF5EC2-C cyclic peptide (antibody, V domains shown)
VH: QVQLEESGPGLVAPSQSLSIICTVSGFSLTSYGVTWVRQPPGKGLEWLGVIWSDGSTNYQSALISRLTISRDNSKSQAFLKLNSLQTDDTATYYCARPSNYYYFDYWGQGTTLTVSS
VL: DIVMTQSPSSLAVSAGERVTLSCKSSQSLFDRRTRKTYLAWYQQKPGQSPKLLISWASTRESGVPDRFTGSGSGTDFTLTISSVQAEDLAVYYCKQSYNLFTFGGGTKLEIK
- recognition of TM4SF5 protein by Western blot and immunoprecipitation [4]: recognize Myc-tagged recombinant TM4SF5 protein
- progression of colon cancer (tumor volume and weight) [5]: attenuated progression of colon cancer
